Results as given in patent US20250223353A1 (BIOTHEUS, published 2025).

T1: human PVRIG-his protein (human, UniProt Q6DKI7 41-171)
T1 construct: also called PVRIG-his antigen; human PVRIG protein; not shown: his tag
T1 sequence: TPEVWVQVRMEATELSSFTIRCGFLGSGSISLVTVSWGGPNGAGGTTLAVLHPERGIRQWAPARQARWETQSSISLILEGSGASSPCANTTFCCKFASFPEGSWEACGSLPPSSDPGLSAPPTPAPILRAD

T2: mouse PVRIG-Fc protein (mouse)
T2 construct: not shown: Fc part
T2 chain: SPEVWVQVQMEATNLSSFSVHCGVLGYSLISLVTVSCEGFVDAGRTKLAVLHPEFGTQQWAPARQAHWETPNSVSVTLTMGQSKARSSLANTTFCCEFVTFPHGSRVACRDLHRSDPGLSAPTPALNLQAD

T3: cynomolgus monkey PVRIG-Fc protein (cynomolgus monkey, UniProt Q6DKI7 41-171 (human entry), limits assumed)
T3 construct: also called cynomolgus PVRIG-Fc protein; not shown: Fc part
T3 chain: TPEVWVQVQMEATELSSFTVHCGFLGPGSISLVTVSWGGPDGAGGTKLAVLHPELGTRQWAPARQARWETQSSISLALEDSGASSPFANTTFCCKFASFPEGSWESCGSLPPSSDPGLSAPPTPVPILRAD

T4: human PVRIG-Fc protein (human, UniProt Q6DKI7 41-171)
T4 construct: also called PVRIG-Fc antigen (human); not shown: Fc part
T4 sequence: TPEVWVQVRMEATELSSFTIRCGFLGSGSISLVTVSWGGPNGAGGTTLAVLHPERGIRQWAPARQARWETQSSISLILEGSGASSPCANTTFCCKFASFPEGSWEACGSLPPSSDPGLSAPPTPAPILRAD

T5: human PVRIG protein with mouse IgG2a Fc tag (human, UniProt Q6DKI7 41-171, limits assumed)
T5 construct: not shown: mouse IgG2a Fc tag
T5 sequence (looked up): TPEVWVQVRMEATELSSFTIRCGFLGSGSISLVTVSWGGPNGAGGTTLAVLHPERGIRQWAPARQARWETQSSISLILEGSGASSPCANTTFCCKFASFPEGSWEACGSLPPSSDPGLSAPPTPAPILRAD

T6: cynomolgus PVRIG overexpressed on CHO cells (cynomolgus, UniProt A0A2K5WVV8 1-322)
T6 construct: whole, on cells; also called CHO-cynoPVRIG cells
T6 sequence: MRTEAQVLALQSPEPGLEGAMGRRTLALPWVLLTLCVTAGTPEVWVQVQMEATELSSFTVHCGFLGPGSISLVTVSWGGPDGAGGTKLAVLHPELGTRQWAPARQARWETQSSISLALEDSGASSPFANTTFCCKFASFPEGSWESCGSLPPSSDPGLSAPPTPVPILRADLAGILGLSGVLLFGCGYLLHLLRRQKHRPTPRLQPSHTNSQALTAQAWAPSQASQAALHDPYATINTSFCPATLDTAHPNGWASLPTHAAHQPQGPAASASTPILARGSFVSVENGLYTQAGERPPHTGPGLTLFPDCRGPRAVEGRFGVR

T7: human PVRIG on the cell surface (human, UniProt Q6DKI7 41-326)
T7 construct: whole, on cells; also called CHO-huPVRIG cells; human PVRIG protein overexpressed on the surface of CHO cells
T7 sequence (looked up): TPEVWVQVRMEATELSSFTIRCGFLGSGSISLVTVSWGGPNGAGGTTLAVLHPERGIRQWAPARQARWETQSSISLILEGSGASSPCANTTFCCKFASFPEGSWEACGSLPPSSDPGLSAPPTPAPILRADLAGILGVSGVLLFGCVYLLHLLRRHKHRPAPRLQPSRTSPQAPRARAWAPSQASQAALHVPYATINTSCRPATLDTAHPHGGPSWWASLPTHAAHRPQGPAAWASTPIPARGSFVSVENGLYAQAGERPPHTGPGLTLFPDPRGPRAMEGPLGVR


Columns and labels:
human PVRIG-his protein = biological target: T1, human PVRIG-his protein; assay: BLI (ForteBio), IgG on AHQ sensor, 100 nM PVRIG-his in solution, monovalent, 1:1 model
Procedure: (§1) Biofilm layer optical interference technology (ForteBio) was used to determine the binding and dissociation rate constant (KD) values of the antibodies and their variants or Fab fragments obtained in Example 1 to human, cynomolgus monkey and mouse PVRIG. ForteBio affinity measurement was performed according to existing methods (Este, P et al., High throughput solution-based measurement of antibody-antigen affinity and epitope binning. Mabs, 2013.5 (2): p270-8).
The antibody-loaded sensor was incubated in 100 nM PVRIG-his antigen to the plateau phase, and then the sensor was transferred to an analysis buffer and incubated for at least 2 minutes for measuring dissociation rate. The kinetic analysis was performed using a 1:1 binding model.

mouse PVRIG-Fc protein [1] = biological target: T2, mouse PVRIG-Fc protein; assay: BLI (ForteBio), IgG on AHQ sensor, 100 nM PVRIG-Fc in solution, bivalent
[2] = biological target: T3, cynomolgus monkey PVRIG-Fc protein; assay: BLI (ForteBio), IgG on AHQ sensor, 100 nM PVRIG-Fc in solution, bivalent, 1:1 model
Procedure: as §1
(§2) The antibody-loaded sensor was continued to be loaded in a high concentration of irrelevant intact antibody for 10 min, saturating the Fc-binding site on the AHQ sensor. The saturated sensor was incubated in 100 nM PVRIG-Fc antigens to the plateau phase, and then the sensor was transferred to an analysis buffer and incubated for at least 2 minutes for measuring dissociation rate. The kinetic analysis was performed using a 1:1 binding model.

human PVRIG-Fc protein = biological target: T4, human PVRIG-Fc protein; assay: BLI (ForteBio), PVRIG-Fc on AHQ sensor, 100 nM Fab in solution, monovalent, 1:1 model
Procedure: as §1
(§3) The antigen-loaded sensor was incubated in 100 nM Fab solution to the plateau phase, and then the sensor was transferred to an analysis buffer and incubated for at least 2 minutes for measuring dissociation rate. The kinetic analysis was performed using a 1:1 binding model.

[3] = biological target: T3, cynomolgus monkey PVRIG-Fc protein; assay: as above
Procedure: as §1, §3

[4] = biological target: T5, human PVRIG protein with mouse IgG2a Fc …; assay: flow cytometry competition: human PVRIG-mouse IgG2a Fc (1 ug/mL) binding to CHO-huCD112 cells
Procedure: Specifically, CHO cells overexpressing human CD112 (CHO-huCD112 cells) were generated by transfection of the pCHO1.0 vector (purchased from Invitrogen) with cDNA encoding human CD112 cloned into the multiple cloning site (MCS), followed by pressure screening. The CHO-huCD112 cells were expanded and adjusted to a cell density of 2×10^6 cells/mL, added to a 96-well flow plate at 100 μL/well, and centrifuged for later use. The purified monoclonal antibody was gradiently diluted with PBS and the diluted sample was added to a 96-well flow plate at 60 μL/well. […] The above incubated samples were added at 100 μL/well to the 96-well flow plate containing CHO-huCD112 cells, incubated at 4° C. for 30 min and washed twice with PBS. APC-conjugated goat anti-mouse IgG antibody diluted 100-fold with PBS was added at 100 μL/well, incubated at 4° C. for 30 minutes and washed twice with PBS. Cells were resuspended with PBS at 100 μL/well, and detected on a CytoFlex flow cytometer, and the corresponding MFI was calculated.

[5] = biological target: T6, cynomolgus PVRIG overexpressed on CHO …; assay: flow cytometry on CHO-cynoPVRIG cells
Procedure: (§4) The overexpressing cells were expanded and adjusted to an appropriate cell density, and added to a 96-well flow cytometry plate. After centrifugation, the cells were added with a gradiently diluted sample to be tested, and incubated at 4° C. for 30 minutes. The cells were washed twice with PBS, and added with a fluorescent secondary antibody correspondingly diluted to an appropriate concentration, then incubated at 4° C. for 30 minutes, and washed twice with PBS. Cells were resuspended with PBS, and detected on a CytoFlex flow cytometer, and the corresponding MFI was calculated. Graphpad software was used for graphical analysis to obtain EC50 values.

[6] = biological target: T7, human PVRIG on the cell surface; assay: flow cytometry on CHO-huPVRIG cells
Procedure: as §4

mouse PVRIG-Fc protein [7] = biological target: T2, mouse PVRIG-Fc protein; assay: BLI (ForteBio), IgG on AHQ sensor, 100 nM PVRIG-Fc in solution, bivalent, 1:1 model
Procedure: as §1, §2

| Kd (human PVRIG-his protein) [nM] | binding result (mouse PVRIG-Fc protein [1]) | Kd [2] [nM] | Binder | further results |
| --- | --- | --- | --- | --- |
| 0.425 | no binding (tested: 100 nM) | 0.197 | ADI-56204 (antibody, V domains shown, Full-length IgG secreted by yeast and purified on Protein A) VH: QVQLVQSGAEVKKPGASVKVSCKASGYTFTHYGIYWVRQAPGQGLEWMGHIYAYSGDTDYAQKLQGRVTMTTDTSTSTAYMELRSLRSDDTAVYYCARGSPTYEHFNWFDPWGQGTLVTVSS VL: DIQMTQSPSSLSASVGDRVTITCQASDDISDYLNWYQQKPGKAPKLLIYDASSLHTGVPSRFSGSGSGTDFTFTISSLQPEDIATYYCQQYGNLPITFGGGTKVEIK | – |
| 2.04 | no binding (tested: 100 nM) | 0.623 | ADI-56145 (antibody, V domains shown, Full-length IgG secreted by yeast and purified on Protein A; also called anti-PVRIG antibody ADI-56145 (full-length IgG obtained from Adimab)) VH: QVQLVQSGAEVKKPGASVKVSCKASGYTFTSYGISWVRQAPGQGLEWVGWISSYDASTKYSQELQGRVTMTTDTSTSTAYMELRSLRSEDTAVYYCARGSPIYEHFNWFDPWGQGTLVTVSS VL: EIVLTQSPATLSLSPGERATLSCRASQSVSSYLAWYQQKPGQAPRLLIYDSSNRATGIPARFSGSGSGTDFTLTISSLEPEDFAVYYCQQLSHHPLTFGGGTKVEIK | – |
| – | – | – | ADI-56145 Fab fragment (Fab, V domains shown, Fab made by papain digestion of the yeast full-length IgG, purified with Kappa Select; also called Fab of ADI-56145) VH: QVQLVQSGAEVKKPGASVKVSCKASGYTFTSYGISWVRQAPGQGLEWVGWISSYDASTKYSQELQGRVTMTTDTSTSTAYMELRSLRSEDTAVYYCARGSPIYEHFNWFDPWGQGTLVTVSS VL: EIVLTQSPATLSLSPGERATLSCRASQSVSSYLAWYQQKPGQAPRLLIYDSSNRATGIPARFSGSGSGTDFTLTISSLEPEDFAVYYCQQLSHHPLTFGGGTKVEIK | Kd (human PVRIG-Fc protein): 0.758 nM; Kd [3]: 157 nM |
| – | – | – | ADI-56145-G1LALA (antibody, human IgG1, kappa, L234A L235A, V domains shown) VH: QVQLVQSGAEVKKPGASVKVSCKASGYTFTSYGISWVRQAPGQGLEWVGWISSYDASTKYSQELQGRVTMTTDTSTSTAYMELRSLRSEDTAVYYCARGSPIYEHFNWFDPWGQGTLVTVSS VL: EIVLTQSPATLSLSPGERATLSCRASQSVSSYLAWYQQKPGQAPRLLIYDSSNRATGIPARFSGSGSGTDFTLTISSLEPEDFAVYYCQQLSHHPLTFGGGTKVEIKR | IC50 [4]: 1.36 nM; EC50 [5]: 37.6 nM; EC50 [6]: 2.29 nM |
| 0.364 | – | 0.181 | ADI-56127 (antibody, V domains shown, Full-length IgG secreted by yeast and purified on Protein A) VH: QVQLVQSGAEVKKPGSSVKVSCKASGGTESVDAISWVRQAPGQGLEWMGDIIPFFDTDYAQKFQGRVTITADESTSTAYMELSSLRSEDTAVYYCAREGGTSWTHFFDLWGRGTLVTVSS VL: not shown | Kd (mouse PVRIG-Fc protein [7]): 1.66 nM |
